# Laboratory results published in patent US9187525B2, “Methods of treating ophthalmic diseases using NPR-B agonists” (Shire Orphan Therapies GmbH, dated 2015).
# Numbered stars: 1 amine (or outer) side, 2 acyl side, 3 side chain; on linkers, the order of the positions; unused ones are H or OH. Square brackets hold non-standard residues; d marks the D form. Ends that are not written are not given here. * marks the point of attachment. Pmy = (S)-para-methoxy-phenylalanine, COc1ccc(C[C@H](N[*:1])C(=O)[*:2])cc1; Pro(trans-4-NH2) = O=C([C@@H]1C[C@@H](N[*:3])CN1[*:1])[*:2]; Sni = (S)-nipecotic acid, O=C([C@H]1CCCN([*:1])C1)[*:2]; Phe(4-NO2) = N[C@@H](Cc1ccc([N+](=O)[O-])cc1)C(=O)O; Pro(trans-4-Ph) = O=C(O)[C@@H]1C[C@@H](c2ccccc2)CN1; NH((S)-tetralin-1-yl) = c1ccc2c(c1)CCC[C@@H]2N*; Phe(3,4-Cl2) = N[C@@H](Cc1ccc(Cl)c(Cl)c1)C(=O)O; Bmf = rac-2-amino-3-phenyl-butyric acid; Phe(4-F) = N[C@@H](Cc1ccc(F)cc1)C(=O)O; Pro(3S-OH) = O=C(O)[C@H]1NCC[C@@H]1O; cisHyp = O=C(O)[C@@H]1C[C@H](O)CN1; Hyp = O=C(O)[C@@H]1C[C@@H](O)CN1; NMeL = CN[C@@H](CC(C)C)C(=O)O; β3hK = NCCCC[C@H](N)CC(=O)O; ΔPro = O=C(O)[C@@H]1C=CCN1; Octanoyl = CCCCCCCC(=O)*; Ac5c = NC1(C(=O)O)CCCC1; Dap = NC[C@H](N)C(=O)O; Hexanoyl = CCCCCC(=O)*; Paf = not defined here; leu = not defined here; NHcHex = C1CCC(N*)CC1; Occ = octanoic acid
# T1: natriuretic peptide receptor-B (human)
# T1 chain: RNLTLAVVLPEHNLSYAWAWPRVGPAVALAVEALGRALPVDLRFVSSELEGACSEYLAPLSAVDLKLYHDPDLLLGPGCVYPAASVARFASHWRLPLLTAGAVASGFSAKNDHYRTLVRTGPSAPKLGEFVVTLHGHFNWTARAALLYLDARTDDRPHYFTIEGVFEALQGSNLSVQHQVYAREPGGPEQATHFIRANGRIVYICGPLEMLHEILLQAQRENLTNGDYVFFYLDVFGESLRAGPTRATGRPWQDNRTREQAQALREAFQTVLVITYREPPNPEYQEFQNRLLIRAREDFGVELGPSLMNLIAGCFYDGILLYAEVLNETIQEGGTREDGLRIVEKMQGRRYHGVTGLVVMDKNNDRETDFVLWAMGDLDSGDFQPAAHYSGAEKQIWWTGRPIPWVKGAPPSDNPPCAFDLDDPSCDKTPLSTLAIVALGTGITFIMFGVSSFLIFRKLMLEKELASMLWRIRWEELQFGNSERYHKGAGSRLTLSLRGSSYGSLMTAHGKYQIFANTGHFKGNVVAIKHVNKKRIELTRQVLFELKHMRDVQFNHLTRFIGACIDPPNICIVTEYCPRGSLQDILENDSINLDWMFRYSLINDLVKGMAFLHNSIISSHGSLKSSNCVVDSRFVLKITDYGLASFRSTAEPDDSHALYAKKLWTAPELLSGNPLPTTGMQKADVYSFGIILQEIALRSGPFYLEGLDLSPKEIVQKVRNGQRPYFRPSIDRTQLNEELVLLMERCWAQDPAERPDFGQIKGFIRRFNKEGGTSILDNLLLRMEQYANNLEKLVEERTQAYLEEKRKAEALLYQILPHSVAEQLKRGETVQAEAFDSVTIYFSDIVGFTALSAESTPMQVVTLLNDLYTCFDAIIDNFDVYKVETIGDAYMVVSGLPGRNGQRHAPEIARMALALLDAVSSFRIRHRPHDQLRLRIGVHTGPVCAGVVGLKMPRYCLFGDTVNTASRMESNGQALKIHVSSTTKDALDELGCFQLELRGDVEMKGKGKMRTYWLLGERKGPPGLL
# Target: T1, natriuretic peptide receptor-B
# Assay: cell-based or functional assay
row,"EC50 group, cGMP in GTM-3 cells",Binder
1,≤ 5 µM,Octanoyl-AF[leu]L[Hyp][NMeL]D[β3hK]I-NH2 (not fully specified (some residues); printed as Occ-ala-Phe-leu-Leu-Hyp-Nml-Asp-Bhk-Ile-NH2; reading uncertain) [JAL-1483]
2,≤ 5 µM,[Occ][Sni]FLL[Hyp][NMeL]DP[NH((S)-tetralin-1-yl)] (not fully specified (residue 4); printed as Occ-Sni-Phe-leu-Leu-Hyp-Nml-Asp-Pro-2118) [JAL-1506]
3,≤ 15 µM,Octanoyl-[Sni]Y[leu]L[Hyp][NMeL]DRI-NH2 (reading uncertain; also: printed as Occ-Sni-Tyr-leu-Leu-Hyp-Nml-Asp-Arg-Ile-NH2) [JAL-1489]
4,≤ 5 µM,Octanoyl-[Sni][Pro(trans-4-Ph)][leu]L[Hyp][NMeL]DRI-NH2 (reading uncertain; also: printed as Occ-Sni-Eay-leu-Leu-Hyp-Nml-Asp-Arg-Ile-NH2) [JAL-1491]
5,≤ 1 µM,"[Occ][Sni][Phe(3,4-Cl2)]LL[Hyp][NMeL]DRI-NH2 (not fully specified (residue 4); printed as Occ-Sni-Eaa-leu-Leu-Hyp-Nml-Asp-Arg-Ile-NH2) [JAL-1496]"
6,≤ 1 µM,Octanoyl-[Sni]X[leu]L[Hyp][NMeL]DRI-NH2 (not fully specified (some residues); printed as Occ-Sni-Pcf-leu-Leu-Hyp-Nml-Asp-Arg-Ile-NH2) [JAL-1493]
7,≤ 5 µM,Octanoyl-AF[leu]L[Hyp][NMeL]D[Dap]I-NH2 (not fully specified (some residues); printed as Occ-ala-Phe-leu-Leu-Hyp-Nml-Asp-Udp-Ile-NH2; reading uncertain) [JAL-1482]
8,≤ 5 µM,Octanoyl-[Sni][Phe(4-NO2)][leu]L[Hyp][NMeL]DRI-NH2 (reading uncertain; also: printed as Occ-Sni-Nif-leu-Leu-Hyp-Nml-Asp-Arg-Ile-NH2) [JAL-1486]
9,≤ 5 µM,Octanoyl-AF[leu]L[Hyp][NMeL]D[Pro(3S-OH)]I-NH2 (not fully specified (some residues); printed as Occ-ala-Phe-leu-Leu-Hyp-Nml-Asp-H3p-Ile-NH2; reading uncertain) [JAL-1477]
10,≤ 1 µM,Octanoyl-[Sni][Phe(4-F)][leu]L[Hyp][NMeL]DRI-NH2 (reading uncertain; also: printed as Occ-Sni-Pff-leu-Leu-Hyp-Nml-Asp-Arg-Ile-NH2) [JAL-1487]
11,≤ 5 µM,Octanoyl-AF[leu]L[Hyp][NMeL]D[ΔPro]I-NH2 (not fully specified (some residues); printed as Occ-ala-Phe-leu-Leu-Hyp-Nml-Asp-Dhp-Ile-NH2; reading uncertain) [JAL-1479]
12,≤ 15 µM,Octanoyl-[Sni][Bmf][leu]L[Hyp][NMeL]DRI-NH2 (reading uncertain; also: printed as Occ-Sni-Bmf-leu-Leu-Hyp-Nml-Asp-Arg-Ile-) [JAL-1490]
13,≤ 5 µM,Octanoyl-[Sni][Paf][leu]L[Hyp][NMeL]DRI-NH2 (reading uncertain; also: printed as Occ-Sni-Paf-leu-Leu-Hyp-Nml-Asp-Arg-Ile-NH2) [JAL-1492]
14,≤ 5 µM,Octanoyl-[Sni][Pmy][leu]L[Hyp][NMeL]DRI-NH2 (reading uncertain; also: printed as Occ-Sni-Pmy-leu-Leu-Hyp-Nml-Asp-Arg-Ile-) [JAL-1488]
15,≤ 1 µM,Octanoyl-[Sni]X[leu]L[Hyp][NMeL]DRI-NH2 (not fully specified (some residues); printed as Occ-Sni-Pmf-leu-Leu-Hyp-Nml-Asp-Arg-Ile-NH2) [JAL-1494]

# The remaining lines, values behind:
row,Binder,"EC50 group, cGMP in GTM-3 cells"
1,Octanoyl-[Sni]F[leu]L[Hyp][NMeL]DPI-NHMe (reading uncertain; also: printed as Occ-Sni-Phe-leu-Leu-Hyp-Nml-Asp-Pro-Ile-(NH-CH3)) [JAL-1475],≤ 5 µM
2,Octanoyl-[dA]FXL[Pro(trans-4-NH2)][NMeL]DRI-NH2 (not fully specified (some residues); printed as Occ-ala-Phe-dap(1464)-Leu-Tap-Nml-Asp-Arg-Ile-NH2) [JAL-1463],≤ 1 µM
3,XXFGLKLDRI (HELM PEPTIDE1{[CCCCCC(=O)[*:2]].[O=C([C@H]1CCC[C@@H](N[*:1])C1)[*:2]].F.G.L.K.L.D.R.I.[am]}$$$$V2.0; SMILES CCCCCC(=O)N[C@@H]1CCC[C@H](C(=O)N[C@@H](Cc2ccccc2)C(=O)NCC(=O)N[C@@H](CC(C)C)C(=O)N[C@@H](CCCCN)C(=O)N[C@@H](CC(C)C)C(=O)N[C@@H](CC(=O)O)C(=O)N[C@@H](CCCNC(=N)N)C(=O)N[C@H](C(N)=O)[C@@H](C)CC)C1) [JAL-0657],≤ 15 µM
4,XXFGLKLDRI (HELM PEPTIDE1{[CCCCCC(=O)[*:2]].[O=C1[C@@H](N[*:1])CCCCN1CC(=O)[*:2]].F.G.L.K.L.D.R.I.[am]}$$$$V2.0; SMILES CCCCCC(=O)N[C@H]1CCCCN(CC(=O)N[C@@H](Cc2ccccc2)C(=O)NCC(=O)N[C@@H](CC(C)C)C(=O)N[C@@H](CCCCN)C(=O)N[C@@H](CC(C)C)C(=O)N[C@@H](CC(=O)O)C(=O)N[C@@H](CCCNC(=N)N)C(=O)N[C@H](C(N)=O)[C@@H](C)CC)C1=O) [JAL-0656],≤ 15 µM
5,Octanoyl-[Sni]F[leu]L[Hyp][NMeL]DPI-OH (reading uncertain; also: printed as Occ-Sni-Phe-leu-Leu-Hyp-Nml-Asp-Pro-Ile-OH) [JAL-1474],≤ 15 µM
6,Hexanoyl-[dA][dA]FGLKLDR[Ac5c]-NH2 [JAL-0692],≤ 15 µM
7,Octanoyl-[Sni]F[dL]L[Hyp][NMeL]DP[NHcHex] [JAL-1464],≤ 5 µM
8,Octanoyl-[dA]FXL[Pro(trans-4-NH2)][NMeL]DRI-NH2 (not fully specified (some residues); printed as Occ-ala-Phe-dap(6238)-Leu-Tap-Nml-Asp-Arg-Ile-NH2) [JAL-1461],≤ 5 µM
9,Octanoyl-AF[leu]L[Hyp][NMeL]D[cisHyp]I-NH2 (not fully specified (some residues); printed as Occ-ala-Phe-leu-Leu-Hyp-Nml-Asp-Chy-Ile-NH2; reading uncertain) [JAL-1476],≤ 5 µM
10,Octanoyl-[dA]FXL[Pro(trans-4-NH2)][NMeL]DRI-NH2 (not fully specified (some residues); printed as Occ-ala-Phe-dap(6238)2-Leu-Tap-Nml-Asp-Arg-Ile-NH2) [JAL-1460],≤ 5 µM
11,Octanoyl-[dA]FXL[Pro(trans-4-NH2)][NMeL]DRI-NH2 (not fully specified (some residues); printed as Occ-ala-Phe-dap(3846)2-Leu-Tap-Nml-Asp-Arg-Ile-NH2) [JAL-1462],≤ 5 µM
